Laboratory results as given in patent US12410245 (UNIVERSITY OF VIRGINIA PATENT FOUNDATION, dated 2025).
Several values for one entry are separate records, joined by “and”; a condition that tells them apart may be missing. Equal entries are not always repeated.

Legend:
[1] = biological target: FnIII9-4G-10 (UniProt P02751); assay: SPR (Biacore 2000), integrin immobilized, Fn fragment as analyte
[2] = biological target: FnIII9*10 (UniProt P02751); assay: as above
[3] = biological target: T1, FnIII6-9 (UniProt P02751-1 1085-1446, limits assumed); assay: SPR, Fn fragment immobilized; SPR, FnIII6-9 immobilized (other target: fragment with the 9th repeat)
T1 construct: domain: FnIII6-9; also called FnIII9 (FnIII6-9); Fn fragment including the 9th type III repeat
T1 sequence (P02751 other isoform, or with tags, fused parts or gaps limits assumed): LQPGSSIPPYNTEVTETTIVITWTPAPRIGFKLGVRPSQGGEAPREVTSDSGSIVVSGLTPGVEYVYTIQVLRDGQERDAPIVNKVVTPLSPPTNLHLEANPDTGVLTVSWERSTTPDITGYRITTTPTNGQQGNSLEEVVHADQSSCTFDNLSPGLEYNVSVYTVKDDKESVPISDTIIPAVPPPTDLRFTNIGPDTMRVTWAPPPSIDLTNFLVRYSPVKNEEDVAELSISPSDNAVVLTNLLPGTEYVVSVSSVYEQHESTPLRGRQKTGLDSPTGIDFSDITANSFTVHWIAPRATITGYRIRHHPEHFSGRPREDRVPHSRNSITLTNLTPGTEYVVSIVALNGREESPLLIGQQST

[4] = biological target: FnIII9-4G-10 (UniProt P02751); assay: phage ELISA on maleimide plates (HRP anti-M13); absorbance (450 nm minus 650 nm) on 4G divided by absorbance on 9*10
[5] = biological target: FnIII9-4G-10 (UniProt P02751); assay: SPR, ratio of the KD values (107 nM on FnIII9*10 against 16 nM on FnIII9-4G-10)
[6] = biological target: T2, FnIII10-14 (UniProt P02751-8 1447-1901); assay: SPR, Fn fragment immobilized; SPR, FnIII10-14 immobilized; fitted KD given in the text (FIGS. 9D and 9E)
T2 construct: domain: FnIII10-14; also called FnIII10 (FnIII10-14); Fn fragment including the 10th type III repeat
T2 sequence (P02751 other isoform, or with tags, fused parts or gaps limits assumed): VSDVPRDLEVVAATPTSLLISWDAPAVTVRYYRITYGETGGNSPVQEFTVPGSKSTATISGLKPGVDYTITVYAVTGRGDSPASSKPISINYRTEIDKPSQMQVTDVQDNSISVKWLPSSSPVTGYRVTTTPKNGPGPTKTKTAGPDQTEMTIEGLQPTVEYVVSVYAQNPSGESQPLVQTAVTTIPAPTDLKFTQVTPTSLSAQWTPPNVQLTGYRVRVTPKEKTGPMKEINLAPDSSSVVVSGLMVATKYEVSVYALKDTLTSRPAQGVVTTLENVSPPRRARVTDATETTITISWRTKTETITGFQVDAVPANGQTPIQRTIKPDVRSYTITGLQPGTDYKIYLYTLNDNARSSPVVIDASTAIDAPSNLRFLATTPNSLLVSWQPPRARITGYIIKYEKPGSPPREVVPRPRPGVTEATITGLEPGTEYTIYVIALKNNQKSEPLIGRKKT

[7] = biological target: FnIII9-4G-10 (UniProt P02751); assay: SPR
[8] = biological target: FnIII9*10 (UniProt P02751); assay: SPR

Sequence of FnIII9-4G-10 (P02751 other isoform, or with tags, fused parts or gaps): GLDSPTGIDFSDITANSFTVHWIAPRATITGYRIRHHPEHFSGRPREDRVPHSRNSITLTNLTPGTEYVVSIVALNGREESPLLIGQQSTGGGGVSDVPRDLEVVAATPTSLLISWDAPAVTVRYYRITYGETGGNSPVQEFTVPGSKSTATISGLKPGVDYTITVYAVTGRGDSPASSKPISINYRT

With “integrin αvβ3 (R&D Systems) (from UniProt P06756 31-992; P05106 27-718) (receptor)” as the molecule, how does the Kd [1] read?
Its Kd is 40 nM.

And the Kd [2]?
Its Kd is 40 nM.

B1: H5 scFv (scFv)
scFv: EVQLLESGGGLVQPGGSLRLSCAASGFTFSSYAMSWVRQAPGKGLEWVSDIYDGGGTNYADSVKGRFTTSRDNSKNTLYLQMNSLRAEDTAVYYCAKTADNFDYWGQGTLVTVSSGGGGSGGGGSGGGGSTDIQMTQSPSSLSASVGDRVTITCRASQSISSYLNWYQQKPGKAPKLLIYAASTLQSGVPSRFSGSGSGTDFTLTISSLQPEDFATYYCQQANSAPTTFGQGTKVEIKRAAA
notes: Soluble scFv from E. coli, purified by Protein-A; also called clone H5; H5 antibody
With B1 as the molecule, how does the Kd [3] read?
Its Kd is 34.8 nM.

What about the 4G/9*10 Ratio [4] of the same molecule?
Its 4G/9*10 Ratio is 1.21 and 1.02 and 1.06.

And the selectivity of binding (fold, against FnIII9-10 as reference) [5]?
Its selectivity of binding (fold, against FnIII9-10 as reference) is 10 fold.

What about the Kd [6] of the same molecule?
Its Kd is 5100 nM.

What about the Kd [7] of the same molecule?
Its Kd is 16 nM.

And the Kd [8]?
The Kd was 107 nM.

B2: H5 Modified Clone R1H6 (scFv)
scFv: EVQLLESGGGLVQPGGSLRLSCAASGFTFSSYAMSWVRQAPGKGLEWVSDIYDGGGTNYADSVKGRFTTSRDNSKNTMYLQMNSLRAEDTAVYYCAKTADNFDYWGQGTLVTVSSGGGGSGGGGSGGGGSTDIQMTQSPSSLSASVGDRVTITCRASQSISSYLNWYQQKPGKAPKLLIYAASTLQSGVPSRFSGSGSGTDFTLTISSLQPEDFATYYCQQANSAPTTFGQGTKVEIKRAAA
Which 4G/9*10 Ratio [4] does the source give for B2 here?
The 4G/9*10 Ratio was 1.62.

B3: H5 Modified Clone R1F8/R1H8 (scFv)
scFv: EVQLLESGGGLVQPGGSLRLSCAASGFTFSSYAMSWVRQAPGKGLEWVSDIYDGGGTNYADSVKGRFTTSRDNSKNTLYLQMNSLRAEDTAVYYCTKTADNFDYWGQGTLVTVSSGGGGSGGGGSGGGGSTDIQMTQSPSSLSASVGDRVTITCRASQSISSYLNWYQQKPGKAPKLLIYAASTLQSGVPSRFSGSGSGTDFTLTISSLQPEDFATYYCQQANSAPTTFGQGTKVEIKRAAA
For B3, which 4G/9*10 Ratio [4] is on record?
Its 4G/9*10 Ratio is 1.42 and 1.33.

B4: H5 Modified Clone R4B8 (scFv)
scFv: EVQLLESGGGLVQPGGSLRLSCAASGFTFSSYAMSWVRQAPGKGLEWVSDIYDGGGTNYADSVKGRFTTSRDNSKNTLYLQMNSLRAEDTAVYYCAKTADNFYYWGQGTLVTVSSGGGGSGGGGSGGGGSTDIQMTQSPSSLSASVGDRVTITCRASQSISSYLNWYQQKPGKAPKLLIYAASTLQSGVPSRFSGSGSGTDFTLTISSLQPEDFATYYCQQANSAPTTFGQGTKVEIKRAAA
How did the 4G/9*10 Ratio [4] turn out when B4 was run?
Its 4G/9*10 Ratio is 1.49.

B5: H5 Modified Clone R2G3 (scFv)
scFv: EVQLLESGGGLVQPGGSLRLSCAASGFTFSSYAMSWVRQASGKGLEWVSDIYDGGGTNYADSVKGRFTTSRDDSKNTLYLQMNSLRAEDTAVYYCAKTADNFDYWGQGTLVTVSSGGGGSGGGGSGGGGSTDIQMTQSPSSLSASVGDRVTITCRASQSISSYLNWYQQKPGKAPKLLIYAASTLQSGVPSRFSGSGSGTDFTLTISSLQPEDFATYYCQQANSAPTTFGQGTKVEIKRAAA
B5 was tested. Which 4G/9*10 Ratio [4] did it give?
Its 4G/9*10 Ratio is 2.53.
